Kd data for 2 molecules are collected here from paper PMC4609965 (2015).

The assay deals with alpha-synuclein (Homo sapiens, UniProt P37840). The assay is described as follows: NMR PRE titration.

The Kd is a measure of binding affinity in units of concentration. A high value points to weaker binding. Molecule YEMPSEEGYQDYEPEA [alpha-synuclein 125-140] gave a Kd of approximately 500 µM.

In turn, EGESYEDPPQEEYQEYEPEA [beta-synuclein 115-134] had a Kd of approximately 100 µM.
